Source: publication PMC12395305 (ACS Central Science, 2025)

Target: T1, green fluorescent protein (Aequorea victoria, engineered EGFP-type …)
T1 construct: green fluorescent protein; pI 5.4; also called GFP; GFP-wt; source: produced by the authors; expression and purification in the Supplementary Methods
Test: SPR; αGFP nanobody variants and GFP; constants in Table S1; format and conditions not shown
Details: both partners purified

B1: αGFP-S54C (VHH)
VHH: QVQLVESGGALVQPGGSLRLSCAASGFPVNRYSMRWYRQAPGKEREWVAGMSCAGDRSSYEDSVKGRFTISRDDARNTVYLQMNSLKPEDTAVYYCNVNVGFEYWGQGTQVTVSS
notes: as the chain of m1 (nanobody chain of PDB 3OGO) with S54C; In the functional rows it carries linker 3c-rho on C54 (PEABS αGFP-S54-3c-rho); also called cysteine mutant; αGFP-S54C nanobody; source: bacterial expression vector, expressed and purified
fold reduction of affinity against the wild type: 25 fold
